{"source": "the supplement of paper PMC6755084", "parents": {"B1": {"name": "minF1; a variant is named by its letters at N, in order (parent)", "chain": "GAGACCGCAACTGAAAAGTTGTTANNNNAANGNNNGGTTGAATTTCTGCACGTAGAAGCAAAAGGC"}}, "data": [{"variants_of": "B1", "assay": "fraction ligated after 30 min (ligated reads / total reads); higher = more ligase activity", "conditions": "with F1*subA RNA substrate (template-directed ligation), 42 °C", "in_short": "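Templates from an oligo pool encoding minimized ligase ribozyme variants were amplified by PCR, transcribed with T7, and purified on gels. Gel electrophoresis separated ligated from unligated RNAs, which were then reverse transcribed using barcoded primers and sequenced on a MiSeq, keeping core bases with quality ≥30. For each variant, fraction ligated equals ligated reads divided by total reads.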", "values": [{"variant": "GAGACCGCAACTGAAAAGTTGTTCAGAAATGGATGGGTTGAATTTCTGCACGTAGAAGCAAAAGGC", "fraction ligated": 0.0111}, {"variant": "GAGACCGCAACTGAAAAGTTGTTATCAAAATGGAGGGTTGAATTTCTGCACGTAGAAGCAAAAGGC", "fraction ligated": 0.00836}, {"variant": "GAGACCGCAACTGAAAAGTTGTTATCAAAATGGATGGTTGAATTTCTGCACGTAGAAGCAAAAGGC", "fraction ligated": 0.0159}, {"variant": "GAGACCGCAACTGAAAAGTTGTATCAGAAATGATGGGTTGAATTTCTGCACGTAGAAGCAAAAGGC", "fraction ligated": 0.00616}, {"variant": "GAGACCGCAACTGAAAAGTTGTATCAAAATGGATGGGTTGAATTTCTGCACGTAGAAGCAAAAGGC", "fraction ligated": 0.0275}, {"variant": "GAGACCGCAACTGAAAAGTTGTTATCAGAATGGTGGGTTGAATTTCTGCACGTAGAAGCAAAAGGC", "fraction ligated": 0.00427}, {"variant": "GAGACCGCAACTGAAAAGTTGTTATCAGAAATGATGGGTTGATTTCTGCACGTAGAAGCAAAAGGC", "fraction ligated": 0.0724}, {"variant": "GAGACCGCAACTGAAAAGTTGTTATCAGAATGATGGGTTGAATTTCTGCACGTAGAAGCAAAAGGC", "fraction ligated": 0.011}, {"variant": "GAGACCGCAACTGAAAAGTTGTTATCAGAAATGATGGTTGAATTTCTGCACGTAGAAGCAAAAGGC", "fraction ligated": 0.00472}, {"variant": "GAGACCGCAACTGAAAAGTTGTTATCGAAATGGTGGGTTGAATTTCTGCACGTAGAAGCAAAAGGC", "fraction ligated": 0.0076}, {"variant": "GAGACCGCAACTGAAAAGTTGTTATCGAAATGGATGGGTTGATTTCTGCACGTAGAAGCAAAAGGC", "fraction ligated": 0.576}, {"variant": "GAGACCGCAACTGAAAAGTTGTTTCAGAAATGGAGGGTTGAATTTCTGCACGTAGAAGCAAAAGGC", "fraction ligated": 0.00352}, {"variant": "GAGACCGCAACTGAAAAGTTGTTACAGAAATGATGGGTTGAATTTCTGCACGTAGAAGCAAAAGGC", "fraction ligated": 0.00456}, {"variant": "GAGACCGCAACTGAAAAGTTGTTTCAGAAATGGATGGTTGAATTTCTGCACGTAGAAGCAAAAGGC", "fraction ligated": 0.00819}, {"variant": "GAGACCGCAACTGAAAAGTTGTTATGAAATGGATGGGTTGAATTTCTGCACGTAGAAGCAAAAGGC", "fraction ligated": 0.054}, {"variant": "GAGACCGCAACTGAAAAGTTGTTACAGAAAGGATGGGTTGAATTTCTGCACGTAGAAGCAAAAGGC", "fraction ligated": 0.00233}, {"variant": "GAGACCGCAACTGAAAAGTTGTATCAGAAAGGATGGGTTGAATTTCTGCACGTAGAAGCAAAAGGC", "fraction ligated": 0.00547}, {"variant": "GAGACCGCAACTGAAAAGTTGTTTCAGAAATGGATGGGTTAATTTCTGCACGTAGAAGCAAAAGGC", "fraction ligated": 0.00536}, {"variant": "GAGACCGCAACTGAAAAGTTGTTATAGAAAGGATGGGTTGAATTTCTGCACGTAGAAGCAAAAGGC", "fraction ligated": 0.00517}, {"variant": "GAGACCGCAACTGAAAAGTTGTTATCAGAAATGTGGGTTGAATTTCTGCACGTAGAAGCAAAAGGC", "fraction ligated": 0.00848}, {"variant": "GAGACCGCAACTGAAAAGTTGTTATAGAAATGGATGGTTGAATTTCTGCACGTAGAAGCAAAAGGC", "fraction ligated": 0.00267}, {"variant": "GAGACCGCAACTGAAAAGTTGTTTCAGAATGGATGGGTTGAATTTCTGCACGTAGAAGCAAAAGGC", "fraction ligated": 0.0149}, {"variant": "GAGACCGCAACTGAAAAGTTGTTATCAAAATGGATGGGTTGATTTCTGCACGTAGAAGCAAAAGGC", "fraction ligated": 0.302}, {"variant": "GAGACCGCAACTGAAAAGTTGTTACAGAAATGGATGGGTTGATTTCTGCACGTAGAAGCAAAAGGC", "fraction ligated": 0.0186}, {"variant": "GAGACCGCAACTGAAAAGTTGTTATCAGAATGGAGGGTTGAATTTCTGCACGTAGAAGCAAAAGGC", "fraction ligated": 0.00523}, {"variant": "GAGACCGCAACTGAAAAGTTGTTATCAGAATGGATGGTTGAATTTCTGCACGTAGAAGCAAAAGGC", "fraction ligated": 0.0235}, {"variant": "GAGACCGCAACTGAAAAGTTGTTTCGAAATGGATGGGTTGAATTTCTGCACGTAGAAGCAAAAGGC", "fraction ligated": 0.0664}, {"variant": "GAGACCGCAACTGAAAAGTTGTTATAGAAATGGATGGGTTAATTTCTGCACGTAGAAGCAAAAGGC", "fraction ligated": 0.00516}, {"variant": "GAGACCGCAACTGAAAAGTTGTTATCAGAAGGATGGGTTGAATTTCTGCACGTAGAAGCAAAAGGC", "fraction ligated": 0.00705}, {"variant": "GAGACCGCAACTGAAAAGTTGTTATAGAAATGGTGGGTTGAATTTCTGCACGTAGAAGCAAAAGGC", "fraction ligated": 0.00059}, {"variant": "GAGACCGCAACTGAAAAGTTGTTATCAGAAATGGATGGTTAATTTCTGCACGTAGAAGCAAAAGGC", "fraction ligated": 0.0174}, {"variant": "GAGACCGCAACTGAAAAGTTGTTATCAGAAATGGATGGGTTGTTTCTGCACGTAGAAGCAAAAGGC", "fraction ligated": 0.00154}, {"variant": "GAGACCGCAACTGAAAAGTTGTTATCAGAAATGGATGGGTTCTTTCTGCACGTAGAAGCAAAAGGC", "fraction ligated": 0.00198}, {"variant": "GAGACCGCAACTGAAAAGTTGTTATCAGAAATGATGGGTTAATTTCTGCACGTAGAAGCAAAAGGC", "fraction ligated": 0.00839}, {"variant": "GAGACCGCAACTGAAAAGTTGTTATCAAAAGGATGGGTTGAATTTCTGCACGTAGAAGCAAAAGGC", "fraction ligated": 0.00472}, {"variant": "GAGACCGCAACTGAAAAGTTGTTATAAAATGGATGGGTTGAATTTCTGCACGTAGAAGCAAAAGGC", "fraction ligated": 0.021}, {"variant": "GAGACCGCAACTGAAAAGTTGTTATCAGAAATGGAGGGTTAATTTCTGCACGTAGAAGCAAAAGGC", "fraction ligated": 0.00434}, {"variant": "GAGACCGCAACTGAAAAGTTGTTATCAGAAAGGATGGGTTGATTTCTGCACGTAGAAGCAAAAGGC", "fraction ligated": 0.0517}, {"variant": "GAGACCGCAACTGAAAAGTTGTTATCAGAAAGGAGGGTTGAATTTCTGCACGTAGAAGCAAAAGGC", "fraction ligated": 0.00214}, {"variant": "GAGACCGCAACTGAAAAGTTGTTATCAGAAAGGATGGTTGAATTTCTGCACGTAGAAGCAAAAGGC", "fraction ligated": 0.00503}, {"variant": "GAGACCGCAACTGAAAAGTTGTTATCAGAAATGGTGGTTGAATTTCTGCACGTAGAAGCAAAAGGC", "fraction ligated": 0.00299}]}]}
